Measured values as given in patent US9187525B2, “Methods of treating ophthalmic diseases using NPR-B agonists” (Shire Orphan Therapies GmbH, dated 2015).
Numbered stars: 1 amine (or outer) side, 2 acyl side, 3 side chain; on linkers, the order of the positions; unused ones are H or OH. Square brackets hold non-standard residues; d marks the D form. Ends that are not written are not given here. * marks the point of attachment. abu(pip) = (R)-2-amino-4-(piperidin-1-yl)butanoic acid, O=C([C@@H](CCN1CCCCC1)N[*:1])[*:2]; Pro(trans-4-NH2) = O=C([C@@H]1C[C@@H](N[*:3])CN1[*:1])[*:2]; Sni = (S)-nipecotic acid, O=C([C@H]1CCCN([*:1])C1)[*:2]; Bmf = rac-2-amino-3-phenyl-butyric acid; Fhy = Amino-piperidin-3-yl-acetic acid; Gly(cPent) = N[C@H](C(=O)O)C1CCCC1; Hyp = O=C(O)[C@@H]1C[C@@H](O)CN1; AR‑314‑145 = not defined here; AR‑314‑169 = not defined here; AR‑314‑170 = not defined here; AR‑314‑171 = not defined here; AR‑314‑172 = not defined here; AR‑385‑008 = not defined here; AR‑385‑042 = not defined here; NMeL = CN[C@@H](CC(C)C)C(=O)O; AR‑385‑12 = not defined here; Phg = N[C@H](C(=O)O)c1ccccc1; orn(Me2) = not defined here; Octanoyl = CCCCCCCC(=O)*; Az3 = not defined here; Che = not defined here; Fbz = not defined here; Oct = not defined here; aze = not defined here; hse = not defined here; leu = not defined here; Occ = octanoic acid

T1: natriuretic peptide receptor-B (human)
T1 chain: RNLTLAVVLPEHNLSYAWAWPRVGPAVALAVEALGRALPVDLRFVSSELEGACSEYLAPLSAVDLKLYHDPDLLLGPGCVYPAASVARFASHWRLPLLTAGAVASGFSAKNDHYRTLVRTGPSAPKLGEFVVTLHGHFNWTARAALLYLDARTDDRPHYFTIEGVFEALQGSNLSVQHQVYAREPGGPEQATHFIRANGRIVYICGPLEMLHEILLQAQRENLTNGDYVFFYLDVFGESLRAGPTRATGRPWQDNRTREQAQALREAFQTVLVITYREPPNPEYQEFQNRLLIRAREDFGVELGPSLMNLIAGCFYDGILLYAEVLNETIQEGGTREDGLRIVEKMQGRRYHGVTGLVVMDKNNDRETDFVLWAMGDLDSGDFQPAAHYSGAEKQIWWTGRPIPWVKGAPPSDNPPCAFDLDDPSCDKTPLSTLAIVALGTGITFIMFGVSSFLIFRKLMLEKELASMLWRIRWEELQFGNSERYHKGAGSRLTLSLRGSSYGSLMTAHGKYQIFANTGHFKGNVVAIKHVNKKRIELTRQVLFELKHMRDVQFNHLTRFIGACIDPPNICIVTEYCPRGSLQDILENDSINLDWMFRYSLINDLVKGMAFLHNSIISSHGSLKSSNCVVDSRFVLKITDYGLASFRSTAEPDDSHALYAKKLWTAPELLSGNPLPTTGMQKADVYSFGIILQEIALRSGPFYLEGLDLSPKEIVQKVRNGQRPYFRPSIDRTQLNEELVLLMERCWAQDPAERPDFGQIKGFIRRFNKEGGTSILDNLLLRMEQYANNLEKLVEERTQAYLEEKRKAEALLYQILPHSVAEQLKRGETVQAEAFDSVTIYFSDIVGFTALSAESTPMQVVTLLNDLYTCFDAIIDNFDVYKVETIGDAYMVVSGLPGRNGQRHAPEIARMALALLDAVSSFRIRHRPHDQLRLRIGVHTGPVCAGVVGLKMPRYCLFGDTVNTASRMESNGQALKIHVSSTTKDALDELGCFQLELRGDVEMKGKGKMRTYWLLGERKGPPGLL

B1: JAL-1870-2 (peptide)
peptide: [AR‑314‑171]F[leu]L[Hyp][NMeL]DRI-NH2
modifications: reading uncertain; also: printed as (AR-314-171)-Phe-leu-Leu-Hyp-Nml-Asp-Arg-Ile-NH2
B2: JAL-1880 (peptide)
peptide: [AR‑385‑042][leu]L[Hyp][NMeL]DRI-NH2
modifications: reading uncertain; also: printed as (AR-385-042)-leu-Leu-Hyp-Nml-Asp-Arg-Ile-NH2
B3: JAL-1868-2 (peptide)
peptide: [AR‑314‑169]F[leu]L[Hyp][NMeL]DRI-NH2
modifications: reading uncertain; also: printed as (AR-314-169)-Phe-leu-Leu-Hyp-Nml-Asp-Arg-Ile-NH2
B4: JAL-1873 (peptide)
peptide: [AR‑385‑008][leu]L[Hyp][NMeL]DRI-NH2
modifications: reading uncertain; also: printed as (AR-385-008)-leu-Leu-Hyp-Nml-Asp-Arg-Ile-NH2
B5: JAL-1864 (peptide)
peptide: [Occ][Sni]F[leu]L[Hyp][NMeL][AR‑314‑145]RI-NH2
modifications: reading uncertain; also: printed as Occ-Sni-Phe-leu-Leu-Hyp-Nml-(AR-314-145)-Arg-Ile-NH2
B6: JAL-1874 (peptide)
peptide: [AR‑314‑172][leu]L[Hyp][NMeL]DRI-NH2
modifications: reading uncertain; also: printed as (AR-314-172)-leu-Leu-Hyp-Nml-Asp-Arg-Ile-NH2
B7: JAL-1845 (peptide)
peptide: [Occ][Sni]F[orn(Me2)]L[Hyp][NMeL]VP[Che]
modifications: reading uncertain; also: printed as Occ-Sni-Phe-orn(Me2)-Leu-Hyp-Nml-Val-Pro-Che
B8: JAL-1851 (peptide)
peptide: [Oct][Sni]F[orn(Me2)]L[Hyp][NMeL]VR[Che]
modifications: reading uncertain; also: printed as Oct-Sni-Phe-orn(Me2)-Leu-Hyp-Nml-Val-Arg-Che
B9: JAL-1869-2 (peptide)
peptide: [AR‑314‑170]F[leu]L[Hyp][NMeL]DRI-NH2
modifications: reading uncertain; also: printed as (AR-314-170)-Phe-leu-Leu-Hyp-Nml-Asp-Arg-Ile-NH2
B10: JAL-1883 (peptide)
peptide: Octanoyl-[Sni]FTL[Hyp][NMeL]DRI-NH2
modifications: not fully specified (some residues); printed as Occ-Sni-Phe-thr-Leu-Hyp-Nml-Asp-Arg-Ile-NH2
B11: JAL-1877 (peptide)
peptide: [Occ][Sni]F[AR‑385‑12]L[Hyp][NMeL]DRI-NH2
modifications: reading uncertain; also: printed as Occ-Sni-Phe-(AR-385-12)-Leu-Hyp-Nml-Asp-Arg-Ile-NH2
B12: JAL-1847 (peptide)
peptide: [Oct][Sni]F[orn(Me2)]L[Hyp][NMeL]VP[Che]
modifications: reading uncertain; also: printed as Oct-Sni-Phe-orn(Me2)-Leu-Hyp-Nml-Val-Pro-Che
B13: JAL-1846 (peptide)
peptide: [Occ][Sni]F[orn(Me2)]L[Pro(trans-4-NH2)][NMeL]VP[Che]
modifications: reading uncertain; also: printed as Occ-Sni-Phe-orn(Me2)-Leu-Tap-Nml-Val-Pro-Che
B14: JAL-1850 (peptide)
peptide: [Occ][Sni]F[orn(Me2)]L[Pro(trans-4-NH2)][NMeL]VR[Che]
modifications: reading uncertain; also: printed as Occ-Sni-Phe-orn(Me2)-Leu-Tap-Nml-Val-Arg-Che

Biological target: T1, natriuretic peptide receptor-B
Experiment: cell-based or functional assay

| Binder | EC50 group, cGMP in GTM-3 cells [µM] |
| --- | --- |
| B1 | ≤ 15 |
| [Occ][Sni]F[abu(pip)]L[Hyp][NMeL]DRI-NH2 [JAL-1879] | ≤ 5 |
| [Oct][Sni]F[leu]L[Hyp][NMeL]VR[Che] (reading uncertain; also: printed as Oct-Sni-Phe-leu-Leu-Hyp-Nml-Val-Arg-Che) [JAL-1848] | ≤ 5 |
| B2 | ≤ 5 |
| B3 | ≤ 5 |
| [Occ][Sni]F[leu]L[Hyp][NMeL][Phg]RI-NH2 (reading uncertain; also: printed as Occ-Sni-Phe-leu-Leu-Hyp-Nml-Phg-Arg-Ile-NH2) [JAL-1858] | ≤ 15 |
| [Occ][Sni]F[leu]L[Hyp][NMeL][Bmf]RI-NH2 (reading uncertain; also: printed as Occ-Sni-Phe-leu-Leu-Hyp-Nml-Bmf-Arg-Ile-NH2) [JAL-1857] | ≤ 15 |
| [Occ][Az3]FGLKLDRI-NH2 (reading uncertain; also: printed as Occ-Az3-Phe-Gly-Leu-Lys-Leu-Asp-Arg-Ile-NH2) [JAL-0742] | ≤ 15 |
| B4 | ≤ 15 |
| B5 | ≤ 15 |
| B6 | ≤ 5 |
| B7 | ≤ 5 |
| Octanoyl-[aze]FGLKLDRI-NH2 (reading uncertain; also: printed as Occ-aze-Phe-Gly-Leu-Lys-Leu-Asp-Arg-Ile-NH2) [JAL-0740] | ≤ 15 |
| B8 | ≤ 5 |
| [Occ][Sni]F[Fhy]L[Hyp][NMeL]DRI-NH2 [JAL-1882] | ≤ 5 |
| B9 | ≤ 15 |
| [Oct][Sni]F[leu]L[Pro(trans-4-NH2)][NMeL]VR[Che] (reading uncertain; also: printed as Oct-Sni-Phe-leu-Leu-Tap-Nml-Val-Arg-Che) [JAL-1849] | ≤ 5 |
| B10 | ≤ 15 |
| [Occ][Sni]F[hse]L[Hyp][NMeL]DRI-NH2 (reading uncertain; also: printed as Occ-Sni-Phe-hse-Leu-Hyp-Nml-Asp-Arg-Ile-NH2) [JAL-1878] | ≤ 5 |
| [Occ][Sni]F[leu]L[Hyp][NMeL][Gly(cPent)]RI-NH2 (reading uncertain; also: printed as Occ-Sni-Phe-leu-Leu-Hyp-Nml-Cpg-Arg-Ile-NH2) [JAL-1859] | ≤ 5 |
| B11 | ≤ 1 |
| [Occ][Sni]F[Fbz]L[Hyp][NMeL]DRI-NH2 (reading uncertain; also: printed as Occ-Sni-Phe-Fbz-Leu-Hyp-Nml-Asp-Arg-Ile-NH2) [JAL-1881] | ≤ 5 |
| B12 | ≤ 15 |
| B13 | ≤ 5 |
| B14 | ≤ 1 |
